Like-named read-outs stand apart in the source and are kept apart here. *1 amine or outer side, *2 acyl side, *3 side chain or, on linkers, in order; H or OH if unused. Where a SMILES comes first, the peptide text is derived from it. Bridges are numbered along the chain shown (N, C = ends). [ ]: non-standard residue; d: D form. The star is where a group is joined. X1 = N#C[C@@H]1CC(F)(F)CN1C(=O)CNC(=O)c1ccnc2ccc(OCCCN3CCN(*)CC3)cc12; DOTA = O=C(O)CN1CCN(CC(=O)O)CCN(CC(=O)*)CCN(CC(=O)O)CC1; 2Nal = N[C@@H](Cc1ccc2ccccc2c1)C(=O)O; Cit = NC(=O)NCCC[C@H](N)C(=O)O; Suc = O=C(CCC(=O)[*:2])[*:1]; AEEA = NCCOCCOCC(=O)O
Assay: Stability of radioligands in PBS buffer (radio-HPLC)
Assay type: physicochemical
[1] = PBS buffer pH=7.4, 37° C., 0.5 hours
[2] = PBS buffer pH=7.4, 37° C., 1 hour
[3] = PBS buffer pH=7.4, 37° C., 2 hours

Row | SMILES | stability in PBS buffer (in words) | radiochemical purity after incubation in PBS [1] [%] | radiochemical purity after incubation in PBS [2] [%] | radiochemical purity after incubation in PBS [3] [%] | stability in PBS buffer (in words) (PBS buffer pH=7.4, 37° C.)
1 | N#C[C@@H]1CC(F)(F)CN1C(=O)CNC(=O)c1ccnc2ccc(OCCCN3CCN(C(=O)CCC(=O)N[C@@H](CCCCNC(=O)CN4CCN(CC(=O)O)CCN(CC(=O)O)CCN(CC(=O)O)CC4)C(=O)NCCOCCOCC(=O)NCCOCCOCC(=O)N[C@@H](CCCNC(=N)N)C(=O)N[C@@H](CCCNC(=N)N)C(=O)N[C@@H](Cc4ccc5ccccc5c4)C(=O)N[C@H]4CSSC[C@@H](C(=O)N[C@@H](CCCNC(=N)N)C(N)=O)NC(=O)[C@H](CCCNC(N)=O)NC(=O)[C@H](CCCNC(=N)N)NC(=O)[C@H](Cc5ccc(O)cc5)NC(=O)[C@@H]5CCCN5C(=O)[C@H](CCCCN)NC(=O)[C@H](CCCCN)NC(=O)[C@H](CCCNC(N)=O)NC(=O)[C@H](Cc5ccc(O)cc5)NC4=O)CC3)cc12 [^68Ga-SDYD01, metal not drawn] ({X1-Suc}-K(DOTA)[AEEA][AEEA]RR[2Nal]CY[Cit]KKPYR[Cit]CR-NH2; disulfide 7-16) | quite stable in PBS buffer | 98 | 97 | 97 | –
2 | CCCCCC(=O)N[C@H]1CSCc2cc(CSCCNC(=O)[C@H](CCCCNC(=O)CN3CCN(CC(=O)O)CCN(CC(=O)O)CCN(CC(=O)O)CC3)NC(=O)COCCOCCNC(=O)COCCOCCNC(=O)CCN3C(=O)CC(SCCNC(=O)CCC(=O)NCc4ccc(NC(=O)COCC(=O)N[C@H](Cc5ccccc5)C(=O)N[C@@H](CCC(N)=O)C(=O)N[C@@H](Cc5c[nH]c6ccccc56)C(=O)N[C@@H](C)C(=O)N[C@H](C(=O)NCC(=O)N[C@@H](Cc5c[nH]cn5)C(=O)NC(CC(C)C)CC(C)C)C(C)C)cc4)C3=O)cc(c2)CSC[C@@H](C(=O)O)NC(=O)[C@H](Cc2ccccc2)NC(=O)[C@H](CCC(N)=O)NC(=O)C([C@@H](C)O)NC(=O)[C@@H]2CCCN2C(=O)[C@@H]2CCCN2C1=O (some centres unmarked) [^68Ga-SDYD04, metal not drawn] | – | 97 | 97 | 95 | quite stable in PBS buffer

Source: patent US20260069728A1, “MULTI-TARGETING COMPOUND AND USE THEREOF” (Chengdu Shetai Medical Technology Co., Ltd., priority 2023, published 2026)
